According to patent US20200270325A1 (Merck Sharp & Dohme, published 2020):
Numbered stars: 1 amine (or outer) side, 2 acyl side, 3 side chain; on linkers, the order of the positions; unused ones are H or OH. Square brackets hold non-standard residues; d marks the D form. Side chains are listed from the residue outwards. Ends that are not written are not given here. * marks the point of attachment. C18 diacid = O=C(O)CCCCCCCCCCCCCCCCC(=O)*; C16 diacid = O=C(O)CCCCCCCCCCCCCCC(=O)*; γGlu = O=C(O)[C@H](CCC(=O)[*:2])N[*:1]; Met(O2) = CS(=O)(=O)CC[C@H](N)C(=O)O; αMeD = C[C@](N)(CC(=O)O)C(=O)O; αMeS = C[C@](N)(CO)C(=O)O; AEEA = NCCOCCOCC(=O)O

Tests used:
[1] = biological target: human GLP-1 receptor (GLP1R) (human, UniProt P43220 24-463); assay: cell-based or functional assay
[2] = biological target: human Glucagon receptor (GCGR) (human, UniProt P47871 26-477); assay: cell-based or functional assay
Chain of human Glucagon receptor (GCGR) (P47871 26-477): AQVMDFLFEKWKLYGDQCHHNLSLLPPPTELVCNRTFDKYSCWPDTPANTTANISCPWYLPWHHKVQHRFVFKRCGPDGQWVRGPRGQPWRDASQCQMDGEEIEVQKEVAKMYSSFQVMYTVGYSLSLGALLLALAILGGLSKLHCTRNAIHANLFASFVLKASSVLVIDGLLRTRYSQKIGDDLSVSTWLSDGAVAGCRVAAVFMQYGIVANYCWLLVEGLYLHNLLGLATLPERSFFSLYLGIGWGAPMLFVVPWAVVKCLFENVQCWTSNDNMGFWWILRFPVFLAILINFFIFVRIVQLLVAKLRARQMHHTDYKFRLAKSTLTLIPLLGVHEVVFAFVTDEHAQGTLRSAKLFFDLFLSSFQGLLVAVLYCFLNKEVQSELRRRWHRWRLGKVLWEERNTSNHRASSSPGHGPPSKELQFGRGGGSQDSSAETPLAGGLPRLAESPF

Binder | GLP1R EC50 human [1] [nM] | GCGR EC50 human [2] [nM]
H[αMeS]QGTFTSDYSKYLDARAAK([AEEA-AEEA-γGlu-C18 diacid])DFVQWL[Met(O2)][αMeD]T-NH2 (N-terminus assumed; SMILES CC(C)C[C@H](NC(=O)[C@H](Cc1ccc(O)cc1)NC(=O)[C@H](CCCCN)NC(=O)[C@H](CO)NC(=O)[C@H](Cc1ccc(O)cc1)NC(=O)[C@H](CC(=O)O)NC(=O)[C@H](CO)NC(=O)[C@@H](NC(=O)[C@H](Cc1ccccc1)NC(=O)[C@@H](NC(=O)CNC(=O)[C@H](CCC(N)=O)NC(=O)[C@](C)(CO)NC(=O)[C@@H](N)Cc1c[nH]cn1)[C@@H](C)O)[C@@H](C)O)C(=O)N[C@@H](CC(=O)O)C(=O)N[C@@H](C)C(=O)N[C@@H](CCCNC(=N)N)C(=O)N[C@@H](C)C(=O)N[C@@H](C)C(=O)N[C@@H](CCCCNC(=O)COCCOCCNC(=O)COCCOCCNC(=O)CC[C@H](NC(=O)CCCCCCCCCCCCCCCCC(=O)O)C(=O)O)C(=O)N[C@@H](CC(=O)O)C(=O)N[C@@H](Cc1ccccc1)C(=O)N[C@H](C(=O)N[C@@H](CCC(N)=O)C(=O)N[C@@H](Cc1c[nH]c2ccccc12)C(=O)N[C@@H](CC(C)C)C(=O)N[C@@H](CCS(C)(=O)=O)C(=O)N[C@@](C)(CC(=O)O)C(=O)N[C@H](C(N)=O)[C@@H](C)O)C(C)C) [TP616] | 1.96 | 1.39
H[αMeS]QGTFTSDYSKYLDARAAQK([AEEA-AEEA-γGlu-C16 diacid])FVQWL[Met(O2)][αMeD]T-NH2 (N-terminus assumed; SMILES CC(C)C[C@H](NC(=O)[C@H](Cc1ccc(O)cc1)NC(=O)[C@H](CCCCN)NC(=O)[C@H](CO)NC(=O)[C@H](Cc1ccc(O)cc1)NC(=O)[C@H](CC(=O)O)NC(=O)[C@H](CO)NC(=O)[C@@H](NC(=O)[C@H](Cc1ccccc1)NC(=O)[C@@H](NC(=O)CNC(=O)[C@H](CCC(N)=O)NC(=O)[C@](C)(CO)NC(=O)[C@@H](N)Cc1c[nH]cn1)[C@@H](C)O)[C@@H](C)O)C(=O)N[C@@H](CC(=O)O)C(=O)N[C@@H](C)C(=O)N[C@@H](CCCNC(=N)N)C(=O)N[C@@H](C)C(=O)N[C@@H](C)C(=O)N[C@@H](CCC(N)=O)C(=O)N[C@@H](CCCCNC(=O)COCCOCCNC(=O)COCCOCCNC(=O)CC[C@H](NC(=O)CCCCCCCCCCCCCCC(=O)O)C(=O)O)C(=O)N[C@@H](Cc1ccccc1)C(=O)N[C@H](C(=O)N[C@@H](CCC(N)=O)C(=O)N[C@@H](Cc1c[nH]c2ccccc12)C(=O)N[C@@H](CC(C)C)C(=O)N[C@@H](CCS(C)(=O)=O)C(=O)N[C@@](C)(CC(=O)O)C(=O)N[C@H](C(N)=O)[C@@H](C)O)C(C)C) [TP615] | 0.4 | 0.26
H[αMeS]QGTFTSDYSKYLDARAAQK([AEEA-AEEA-γGlu-C18 diacid])FVQWL[Met(O2)][αMeD]T-NH2 (N-terminus assumed; SMILES CC(C)C[C@H](NC(=O)[C@H](Cc1ccc(O)cc1)NC(=O)[C@H](CCCCN)NC(=O)[C@H](CO)NC(=O)[C@H](Cc1ccc(O)cc1)NC(=O)[C@H](CC(=O)O)NC(=O)[C@H](CO)NC(=O)[C@@H](NC(=O)[C@H](Cc1ccccc1)NC(=O)[C@@H](NC(=O)CNC(=O)[C@H](CCC(N)=O)NC(=O)[C@](C)(CO)NC(=O)[C@@H](N)Cc1c[nH]cn1)[C@@H](C)O)[C@@H](C)O)C(=O)N[C@@H](CC(=O)O)C(=O)N[C@@H](C)C(=O)N[C@@H](CCCNC(=N)N)C(=O)N[C@@H](C)C(=O)N[C@@H](C)C(=O)N[C@@H](CCC(N)=O)C(=O)N[C@@H](CCCCNC(=O)COCCOCCNC(=O)COCCOCCNC(=O)CC[C@H](NC(=O)CCCCCCCCCCCCCCCCC(=O)O)C(=O)O)C(=O)N[C@@H](Cc1ccccc1)C(=O)N[C@H](C(=O)N[C@@H](CCC(N)=O)C(=O)N[C@@H](Cc1c[nH]c2ccccc12)C(=O)N[C@@H](CC(C)C)C(=O)N[C@@H](CCS(C)(=O)=O)C(=O)N[C@@](C)(CC(=O)O)C(=O)N[C@H](C(N)=O)[C@@H](C)O)C(C)C) [TP617] | 0.76 | 0.56
